Numbering of substitutions follows the chain as printed. In names and notes the source's numbering stands.
B1: γ protein of the E. coli clamp loader, truncated form (residues 1–373) (domain or fragment)
chain: MSYQVLARKWRPQTFADVVGQEHVLTALANGLSLGRIHHAYLFSGTRGVGKTSIARLLAKGLNCETGITATPCGVCDNCREIEQGRFVDLIEIDAASRTKVEDTRDLLDNVQYAPARGRFKVYLIDEVHMLSRHSFNALLKTLEEPPEHVKFLLATTDPQKLPVTILSRCLQFHLKALDVEQIRHQLEHILNEEHIAHEPRALQLLARAAEGSLRDALSLTDQAIASGDGQVSTQAVSAMLGTLDDDQALSLVEAMVEANGERVMALINEAAARGIEWEALLVEMLGLLHRIAMVQLSPAALGNDMAAIELRMRELARTIPPTDIQLYYQTLLIGRKELPYAPDRRMGVEMTLLRALAFHPRMPLPEPEVPRQ
B2: γ-K141A (domain or fragment)
chain: B1 chain with K141A

Experiments:
[1] = target: the molecule itself; assay: cryo-EM structure
[2] = target: the molecule itself; assay: co-purification on an anion-exchange column

Protein | binding result [1] | binding result [2]
B1 | binds | –
B2 | – | binds
